Assays:
[1] = molecular target: nSh[change], Spike without transmembrane and cytoplasmic domains, with histidine tag (SARS coronavirus (Frankfurt isolate)) (UniProt P59594); assay: self-association; non-heated SDS-PAGE and western blot
[2] = molecular target: nSh[change], Spike without transmembrane and cytoplasmic domains, with histidine tag (SARS coronavirus (Frankfurt isolate)) (UniProt P59594); assay: self-association; western blot of cell lysate

Question: How did the efficiency of oligomerization [1] turn out when “nSh[change], Spike without transmembrane and cytoplasmic domains, with histidine tag (from UniProt P59594 14-1195)” was run?
Answer: < 10%

Question: What about the frequency of monomeric form [2] of the same substance?
Answer: 90%

Question: And the frequency of oligomeric form [2]?
Answer: 10%

Reference: patent publication US20060257852A1 (priority 2003, published 2006)
